Results on 23 sequences are retold here after the DeepSol protein solubility set.

A short description of the data set: soluble on expression in E. coli; label from the status in PepcDB or PDB records.
Regarding “MERNDIINFKALEKELQAALTADEKYKRENAAKLRAVEQRVASYEEFRGIVLASHLKPLERKDKMGGKRTVPWNCHTIQGRTFQDVATEISPEKAPLQPETSADFYRDWRRHLPSGPERYQALLQLGGPRLGCLFQTDVGFGLLGELLVALADHVGPADRAAVLGILCSLASTGRFTLNLSLLSRAERESCKGLFQKLQAMGNPRSVKEGLSWEEQGLEEQSGGLQEEERLLQELLELYQVD”, the “soluble on expression in E. coli” value was “soluble”.
The result for “MAKGSSDKDNGYGNIRTSTSLSICCQDSHLTTPIAPIAPELYSLKVPKDYTPETTSTMRRSLESRLAWLGRQSYVFRSLKQLETVTHNATIRTFFWKDGSVSSSTGGNDGFWIKDELHAGA” reads “not soluble”.
As to “MSQFKNIIVTGGAGFIGSNFVHYVYNNHPDVHVTVLDKLTYAGNKANLEAILGDRVELVVGDIADAELVDKLAAKADAIVHYAAESHNDNSLNDPSPFIHTNFIGTYTLLEAARKYDIRFHHVSTDEVYGDLPLREDLPGHGEGPGEKFTAETNYNPSSPYSSTKAASDLIVKAWVRSFGVKATISNCSNNYGPYQHIEKFIPRQITNILAGIKPKLYGEGKNVRDWIHTNDHSTGVWAILTKGRMGETYLIGADGEKNNKEVLELILEKMGQPKDAYDHVTDRAGHDLRYAIDASKLRDELGWTPQFTDFSEGLEETIQWYTDNQDWWKAEKEAVEANYAKTQEVIK”, the “soluble on expression in E. coli” value was “soluble”.
The result for “GSMSAKDERAREILRGFKLNWMNLRDAETGKILWQGTEDLSVPGVEHEARVPKKILKCKAVSRELNFSSTEQMEKFRLEQKVYFKGQCLEEWFFEFGFVIPNSTNTWQSLIEAAPESQMMPASVLTGNVIIETKFFDDDLLVSTSRVRLFYV” reads “soluble”; that for “MIRSMTGFGRGRAQADGREFLVEIKTVNHRYCDIYIKLPRQISFLEDKVREVIGKSISRGKVDVFINYEDFSEDSKNILIDEGLAKTYIKSVEYLRDKYGLKDDISVSLIAKFPDILKVEKPEEDEEKIWNLLYEALSHALDSLISMRETEGEGLKNDLLERTDAIEKVVQEISIRAPEVVKEYKCKLENRIKEILEQQVIDENRLAMEVAIFADRCNIDEELVRLESHINQLRQTLNSDSDTPVGRKLDFLIQEMNREINTIGSKANDLSITQNVVEIKSELEKIREQIQNIE”, “soluble”; that for “MGSDKIHHHHHHMTSLKQQLLDVKGGRNFRELGGYQTVSGKKIKMHKLIRSGHLADLLKEDQEYLRRYGLKYDIDLRTSFERNKQPDRKISGVEYFADPVFDEDLTNSTMSISDMARESQDPGWGYQRMLWAYKNMATGKNANKAYQHLFEVLLANEKDSESVLFHCTAGKDRTGFGAILILTALGVPMKTIEKDYLFTNEVIKDFVSQLLAKEKAAGADDSLLATFRDLQTVQPAYFKYLLDVINRNYGSINAYLHQQIGLSNADLLDLRTIYLEK”, “not soluble”.
The result for “MSLNEETRKKKKRPSLTTLYEGTMKEITSNENRYIEFLNFASRVHKYSFDEQLLLYAQKQDVHMVATFDIWKKLGRFVKRGSTAALLFDYTTQQRKYVFDISETGGEPLQVFDWQLLDNDKNDLLRYWNTYEKQSGTLVNWEDGIHAKIASYQKPIGDQIHPFFVKDIEVVAAYIIYQRTNTLIPEDLLLDVQSVLQIGKRDNTLLEIQHFANLTAKEFLQDVERILNNELKKERVLYHDRIKFEDELSRREWQPASRDREGHHHHHH” reads “not soluble”.
The value for “MEEKLVTLAILTYTKAQILKNVLENEGIETYIHNVNQIQPVVSSGVRLRIKESDLPRALKITESSAWLAESIVGEKTPKVEHRTKKVLIPVDFSNYSMKACEFGFNFAKSFDAEVILLHVYFTPIYASSLPYGDVFNYQISDEETVKNVLHKVHDDLNTLSEKIKQKVASGEFPDVKYTCVLREGIPEEEILRYNKEHRPRIIIMGTRGKNQKDIDLIGSVTAEIIERSHTTVLAIPENTPFNRFNEVKRIAFMTNFDQRDLIAFDSFINGLSPFHFSVSLIHLSDVKDTWNEIKLAGIKDYFQKQYPDLEIHYDVVMSNDFLNSLDNYIKTNQIDIITLTSYKRNIFSRLFNPGIARKMIFHSDTPLLVING” was “not soluble”; that for “MNQLINITLNENQEPVVSGRDLHNVLNIKTQYTKWLERMSEYGFEENVDYIAISQKRLTAQGNRTEYIDHVLKLDMAKEIAMLQRNEKSKQVRKYFIQVEKDFNSPEKIMARALLMADKKITNLTMENNQLQLDLKEAQKQARYLDLIIESKGALRVTQIAADYGMSVNKFNKTLLEFGVQHKVNGQWILYKRHMGKGYTDSHTFDYQDKNGHTRANVTTTWTQKGRLFLYELLKDNNILPLIEQEDIV” was “not soluble”; that for “MSLGFSRQAFYKRHLNDLARHEEDVLCSSIIQYCWHLRQAEHLPQAGFRELMVLCQQYFGPKFTLGRDRFCALLRRHGMMLRKRSVRPRTTNSRHRLYKYEDLLNTEPKFVPQRPGELLVADITYVAYQDGFAYLSLLTDAYSRCIVGYCLHPTLEVEGCLNALHQAFAFYDQHQIDTTNMIHHSDRGIQYAGKSYTDLLHGRGWRISMTQTGDPLHNALAERMNNTLKNSWHISSSKQSFDQALLSVDRAVRMYNEARPHQALRAKTPMQVITPESEGHHHHHH” was “soluble”.
“MNSLILGAARRFVGLHLRVSVNLLQNESFSSYSFSSASAADVSPKGETFKSSSFLDSLRLATKLTDKGNSDSVLDLLRSYGFTDSQISSIIRSDSRVLIDNDATSLGSKLQFLQSRGASSSELTEVVSTVPKILGKREGKSLSRYYDFIKVIIEADKSSKYEKISHSLAQGNKIRNILVLRELGVPQKRLLLLLISKSQPVCGKEKFDASLKKVVEMGFDPTTSTFVHALHMLYQMSDKTIEEKIRVYRSVGFSVDDVWAMFKKWPRSLTHSEKKVANSIETFLGLGFSRDVFMMMFKRFPPCIGYSTEAVKKKTEFLVKEMNWPVKAVASIPQVLGYSLEKRTVPRCNVIKVLMSKGLLESELPPMSSVLTSTSESFLNLYVSKHDDKQLVAELMAIFTGNRVSLTDQKARLEQ”: the “soluble on expression in E. coli” value is given as “soluble”.
The result for “MNYSPKQGVRSHGLPHDPFKSSTVPRPIGWISTVSKDGKDNLAPYSQYQNLTWDPPMVMFAANQSVLGDHERKDTVKNAEETGWFVWNMATYDLREAVNLSSKALPPEEDEFEYAGVTKEACIEAPGYRVKESPVHFECEYVQTIRIPTGDPVSTVDIVIGRVAQVHIDDKVILDNGKLDIKSIKPIARLGYYDYTVVNEIFEMKAPAASKEELAGLEGRNFDNQSDEKR” reads “not soluble”.
The result for “QILVVRGQVIFPFVPFSLDVGRPRSRKIIKALKTLKTKRLVLVTQKFTGEQNPEFNDIYHVGTLCEIDEIVDVPGVDSKTVDYRIKGRGLQRVLIEKFSDADINEVSYQLLNSTVKDEANVDRFLQRIFPEKEEIEQLMEGAEKFLELENISKTVNVPKGLKQLDIITFKLANLVPNTESIKQAILEENEIANRLEKIIQA” reads “soluble”; that for “MAAWKSWTALRLCATVVVLDMVVCKGFVEDLDESFKENRNDDIWLVDFYAPWCGHCKKLESIWNEVGLEMKSIGSPVKVGKMDATSYSSIASEFGVRGYPTIKLLKGDLAYNYRGPRTKDDIIEFAHRVSGALIRPLPSQQMFEHMQKRHRVFFVYVGGESPLKEKYIDAASELIVYTYFFSASEEVVPEVIFKI”, “soluble”.
Consider “MAKPSTSLLKRRLDIAEIVRKNGEIKVDDLAEMLSVSGVTIRNDLNYLEQQGYLKRSFGGAIYTAQPVRAAVSHEVVQSQALEHSVELELAKQVARLVCDDDTVFLGAGEVLRKALPFLGDYRDLCLIINDLSHVAPARDYIDGEIVLLGGVLGHSGQALGGEIAIQSLQQFQPSCCLVMVDHISEDGTLNVKNESAAALLSECLRLSGQSIAVVAQRPIHDVARYPVGKLNTLSAIITPQIVAAEYHSRFLADGLTNSYTNNECLTWINPTLHQARLEHHHHHH”, for which the “soluble on expression in E. coli” value is “not soluble”.
The value for “MGSDKIHHHHHHMKPRNESVILLHGLARTRGSMEKMEHALSAKGYQCVNLGYPSTQFDIETLAGEHIDKALSQCRGERVHFVTHSMGGILVRQYLSQHTLPALGRVVMLGPPNRGSEVVDSLKDFPGFKWINGPAGLQLGTEEESVPNRLGKAHFEVGVIAGSRSVNLLLSTLLPWPNDGKVSVARTHLEGMRDHISLAVTHPFMMNNPSVIAQTAYFLAHGRFQR” was “not soluble”; that for “MGHHHHHHSHVAVQTASKQVDGDYVVSEWSEIIEFCTADYSKVHLTQLLEKAEVIAGRMLKFSVFYRNQHKEYFDYVREHHGNAMQPSVKDNSGSHGSPISGKLEGIFFSCSTEFNTGKPPQDSPYGRYRFEIAAEKLFNPNTNLYFGDFYCMYTAYHYVILVIAPVGSPGDEFCKQRLPQLNSKDNKFLTCTEEDGVLVYHHAQDVILEVIYTDPVDLSLGTVAEITGHQLMSLSTANAKKDPSCKTCNISVGR” was “not soluble”; that for “MAKPFTPEQREELKTRIVELVHQDGRVTIRQLSDETGISRASVGRLCIELVASGDVYNSGYGLFPSEQARKDWQSARKKLSRVKVRKPVVVDPDLIWSLPDGEIRRYDRRLNIICRECRKSEAMQRVLAFYQGNFQEAIL” was “not soluble”.
The value for “MGSDKIHHHHHHMNYQQLFRNRLAVLATMHQKEKVIAPLLEQELGIKVIVPPDFNTDIFGTFTREVKRPGTQIAAARLKAEKVLELTGENLAIASEGSFAPHPLVPYIYSNREIIILLDKINDIEIIGEEFSTYTNFNHQAVESLDEAYTFAKKVGFPEHGLVVWFENSEKKCHEIIKGITQETALIEAINFGLEKSPNSKINLETDMRAIYNPTRMKNIEKATHNLLQKISSCCPQCHTPGFETTERIKGLPCELCHTPTTLTLRAIYQCKKCGFRQDKLFPNGIEFADPSQCVYCNP” was “not soluble”.
Turning to “MGSSHHHHHHSSGRENLYFQGHMPCQPACPVSADTWAPSAVPDDYRYADLHLPQQVGQASLAAECAVAISYNGLNQAVMMASPEDIEDFVRGFSLSSGFVESIDDIYEIRVSGQGESLHAEVEISSRAFWNLKRQRRQLAGTSGCGLCGVEALEQALPQLPERSPQALPPAAHLGALRQRIEQAQRLARHSGALHAALYFDGHGELRLCREDIGRHNALDKLIGALHRQGLDAARGFAVVTSRCSLELIHKAVRAGIGTLVSLSAPTALTVQWARRHQLNLIHQPHHNAPRVYSPAPAATE”, the “soluble on expression in E. coli” value is given as “soluble”.
The value for “MILYDAIMYKYPNAVSRKDFELRNDGNGSYIEKWNLRAPLPTQAELETWWEELQKNPPYEPPDQVELLAQELSQEKLARKQLEELNKTLGNELSDIKLSLLSLKGDYAELEHHHHHH” was “soluble”; that for “MYKNNFENYMNLDIYKDIEEIRAALEHLGAKKILLQLPDGLKPEVYHYFNYLSANYNVVISSSPVYGACDIGPSSIYDKVDAIVQIGHSPMPNVKYPKPTIFVEHHYNARISNIDTSLLEGKYDRIGLLFSVQYKEVADEVRKIFENKGFTVIIGKKDGRMAYDGQVLGCNFSSVHSISYDVDAYVLVSTGQFHGIGAQLSTEREVFVLDLNDYKLHSMKDEADKFIRKRYAQIFRAKEARKICIISDTRIGQRRERLARIILRQVQQMGLEGILAVTDNISNQDLENMRCDAVVYTGCPRVPIDDQQKFTMPLLTPAEFEMGFVKNSNRYVLDEIVSVDDPADKLEHHHHHH” was “not soluble”; that for “MGHHHHHHSHMGARMTRAFRNFNVEKRAEQEISKRKPSMAPKHPSTRSLLQEHLSQYPEIEEEVSRKDNKLLSLLRDVYVNSKDPVPSLPVKAIEPQQQPKEFRLPIGDQFDKNIKDIPKGKITVVEALTLLNNHKLSPETWTAEKIAQEYHLELEDVNSLLKYFVTFEVKIVPPEDRKAIQSK” was “not soluble”.
